In publication PMC3770802 (Cytokine, 2013):
Blank lines part the entries; values can stand above or below the binder they belong to.

Assays:
IFN-αR2c/ECFP = target: T1, IFN-αR2c/ECFP (human, UniProt P48551 27-515); test: FRET or BRET
T1 sequence (looked up): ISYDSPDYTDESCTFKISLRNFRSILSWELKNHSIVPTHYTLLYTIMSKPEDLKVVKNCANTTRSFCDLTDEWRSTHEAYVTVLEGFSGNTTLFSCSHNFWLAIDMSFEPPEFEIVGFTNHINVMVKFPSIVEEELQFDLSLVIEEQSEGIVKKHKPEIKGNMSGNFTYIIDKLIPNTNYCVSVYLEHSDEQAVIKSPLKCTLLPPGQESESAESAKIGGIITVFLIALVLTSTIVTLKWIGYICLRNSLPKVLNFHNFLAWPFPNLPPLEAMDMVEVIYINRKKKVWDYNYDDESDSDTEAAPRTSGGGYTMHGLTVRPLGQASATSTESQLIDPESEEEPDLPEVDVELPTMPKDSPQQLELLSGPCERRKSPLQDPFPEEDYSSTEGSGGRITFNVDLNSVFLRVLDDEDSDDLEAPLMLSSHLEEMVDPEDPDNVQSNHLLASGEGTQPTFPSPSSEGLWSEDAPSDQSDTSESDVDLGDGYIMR

IL-10R2/StFP = target: T2, IL-10R2/StFP (human, UniProt Q08334 20-325); test: FRET or BRET
T2 sequence (looked up): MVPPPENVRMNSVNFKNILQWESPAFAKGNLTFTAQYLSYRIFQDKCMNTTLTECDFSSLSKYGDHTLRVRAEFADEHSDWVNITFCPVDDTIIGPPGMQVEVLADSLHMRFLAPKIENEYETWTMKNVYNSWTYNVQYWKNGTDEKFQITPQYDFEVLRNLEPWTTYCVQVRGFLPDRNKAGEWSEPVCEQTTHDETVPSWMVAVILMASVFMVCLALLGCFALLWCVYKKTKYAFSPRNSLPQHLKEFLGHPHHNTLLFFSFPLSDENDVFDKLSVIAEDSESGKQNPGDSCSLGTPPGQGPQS

EC50* (relative), rarely seen (IFN-αR2c/ECFP): 4 pairs/cell
B1: IFN-αR1/EYFP (receptor, human, UniProt P17181 28-557, looked up)
chain: KNLKSPQKVEVDIIDDNFILRWNRSDESVGNVTFSFDYQKTGMDNWIKLSGCQNITSTKCNFSSLKLNVYEEIKLRIRAEKENTSSWYEVDSFTPFRKAQIGPPEVHLEAEDKAIVIHISPGTKDSVMWALDGLSFTYSLVIWKNSSGVEERIENIYSRHKIYKLSPETTYCLKVKAALLTSWKIGVYSPVHCIKTTVENELPPPENIEVSVQNQNYVLKWDYTYANMTFQVQWLHAFLKRNPGNHLYKWKQIPDCENVKTTQCVFPQNVFQKGIYLLRVQASDGNNTSFWSEEIKFDTEIQAFLLPPVFNIRSLSDSFHIYIGAPKQSGNTPVIQDYPLIYEIIFWENTSNAERKIIEKKTDVTVPNLKPLTVYCVKARAHTMDEKLNKSSVFSDAVCEKTKPGNTSKIWLIVGICIALFALPFVIYAAKVFLRCINYVFFPSLKPSSSIDEYFSEQPLKNLLLSTSEEQIEKCFIIENISTIATVEETNQTDEDHKKYSSQTSQDSGNYSNEDESESKTSEELQQDFV

EC50* (relative) (IL-10R2/StFP): 200 pairs/cell
EC50* (relative), rarely seen (IL-10R2/StFP): 70 pairs/cell
B2: IFN-λR1/CiFP (receptor, human, UniProt Q8IU57 21-520, looked up)
chain: RPRLAPPQNVTLLSQNFSVYLTWLPGLGNPQDVTYFVAYQSSPTRRRWREVEECAGTKELLCSMMCLKKQDLYNKFKGRVRTVSPSSKSPWVESEYLDYLFEVEPAPPVLVLTQTEEILSANATYQLPPCMPPLDLKYEVAFWKEGAGNKTLFPVTPHGQPVQITLQPAASEHHCLSARTIYTFSVPKYSKFSKPTCFLLEVPEANWAFLVLPSLLILLLVIAAGGVIWKTLMGNPWFQRAKMPRALDFSGHTHPVATFQPSRPESVNDLFLCPQKELTRGVRPTPRVRAPATQQTRWKKDLAEDEEEEDEEDTEDGVSFQPYIEPPSFLGQEHQAPGHSEAGGVDSGRPRAPLVPSEGSSAWDSSDRSWASTVDSSWDRAGSSGYLAEKGPGQGPGGDGHQESLPPPEFSKDSGFLEELPEDNLSSWATWGTLPPEPNLVPGGPPVSLQTLTFCWESSPEEEEEARESEIEDSDAGSWGAESTQRTEDRGRTLGHYMAR
